T1: Yhr016c SH3 (YSC84_YEAST), P32793
T1 chain: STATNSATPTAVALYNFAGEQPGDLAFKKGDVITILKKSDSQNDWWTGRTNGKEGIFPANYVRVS

T2: Boi1 SH3 (BOI1_YEAST), P38041
T2 chain: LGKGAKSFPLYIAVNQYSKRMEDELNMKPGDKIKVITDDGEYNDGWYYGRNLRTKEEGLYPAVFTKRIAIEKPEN

T3: Boi2 SH3 (BOI2_YEAST), P39969
T3 chain: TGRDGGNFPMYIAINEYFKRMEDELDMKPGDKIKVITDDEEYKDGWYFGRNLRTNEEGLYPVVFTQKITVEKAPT

T4: Rvs167 SH3 (RV167_YEAST), P39743
T4 chain: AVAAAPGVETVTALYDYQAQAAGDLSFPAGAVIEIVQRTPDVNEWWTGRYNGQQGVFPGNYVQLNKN

T5: Yfr024 SH3 (LSB3_YEAST), P43603
T5 chain: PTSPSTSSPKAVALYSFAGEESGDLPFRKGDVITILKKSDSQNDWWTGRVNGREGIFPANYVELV


Assays:
Experiment in all cases: SPOT array
[1] = target: T1, Yhr016c SH3 (YSC84_YEAST), P32793
[2] = target: T2, Boi1 SH3 (BOI1_YEAST), P38041
[3] = target: T3, Boi2 SH3 (BOI2_YEAST), P39969
[4] = target: T4, Rvs167 SH3 (RV167_YEAST), P39743
[5] = target: T5, Yfr024 SH3 (LSB3_YEAST), P43603

| Binder | normalised SPOT signal, Boehringer light units (BLU); mean over the file's lines of this peptide [1] | normalised SPOT signal, Boehringer light units (BLU); mean over the file's lines of this peptide [2] | normalised SPOT signal, Boehringer light units (BLU); mean over the file's lines of this peptide [3] | normalised SPOT signal, Boehringer light units (BLU); mean over the file's lines of this peptide [4] | normalised SPOT signal, Boehringer light units (BLU); mean over the file's lines of this peptide [5] |
| --- | --- | --- | --- | --- | --- |
| DLQPLEPKKAAAST [YBL007C 805-818] | 0 | 121 | 104 | 30.3 | 37.7 |
| DKLPEGPVKSLEGA [YNL134C 130-143] | 89.5 | 35.5 | 73.3 | 55.7 | 87.8 |
| DLNPDAPPKPQLIP [YPL057C 43-56] | 65.9 | 96.1 | 41.5 | 11 | 88.2 |
| DLKPAYPGRSAHVV [YJL127C 172-185] | 1390 | 20.7 | 77.4 | 31.5 | 8830 |
| DMVPKHPTKRYVPK [YOR039W 203-216] | 460 | 160 | 114 | 94.1 | 1770 |

More lines, now with the values ahead:

| normalised SPOT signal, Boehringer light units (BLU); mean over the file's lines of this peptide [1] | normalised SPOT signal, Boehringer light units (BLU); mean over the file's lines of this peptide [2] | normalised SPOT signal, Boehringer light units (BLU); mean over the file's lines of this peptide [3] | normalised SPOT signal, Boehringer light units (BLU); mean over the file's lines of this peptide [4] | normalised SPOT signal, Boehringer light units (BLU); mean over the file's lines of this peptide [5] | Binder |
| --- | --- | --- | --- | --- | --- |
| 110 | 48.2 | 14.6 | 7.2 | 1590 | DLAPKWPKKTVSNE [YPL175W 432-445] |
| 156 | 466 | 39.8 | 118 | 64.1 | DKLPFSPIKEKKLK [YOR335C 774-787] |
| 105 | 75 | 30.6 | 30.9 | 56.5 | DLPPEPPTKLSDSF [YNL284C-B 1135-1148] |
| 183 | 0 | 25.7 | 90.9 | 10300 | DLPPKFPEKPVHLV [YDR444W 186-199] |

From PMC314469, “Protein Interaction Networks by Proteome Peptide Scanning” (PLoS Biology, 2004)
